# In patent US20210388110A1 (published 2021):
# Read-outs that look alike come from different tables or passages of the source.
# Legend:
# soluble human GPC3 [1] = biological target: T1, soluble human GPC3 (human, UniProt P51654 25-563, limits assumed); assay: SPR (Biacore), single-arm antibody, soluble human GPC3
# T1 construct: also called glypican 3
# soluble human GPC3 [2] = biological target: T1, soluble human GPC3; assay: as above; remark: listed apart in the source
# T1 sequence (P51654 other isoform, or with tags, fused parts or gaps limits assumed, form in doubt): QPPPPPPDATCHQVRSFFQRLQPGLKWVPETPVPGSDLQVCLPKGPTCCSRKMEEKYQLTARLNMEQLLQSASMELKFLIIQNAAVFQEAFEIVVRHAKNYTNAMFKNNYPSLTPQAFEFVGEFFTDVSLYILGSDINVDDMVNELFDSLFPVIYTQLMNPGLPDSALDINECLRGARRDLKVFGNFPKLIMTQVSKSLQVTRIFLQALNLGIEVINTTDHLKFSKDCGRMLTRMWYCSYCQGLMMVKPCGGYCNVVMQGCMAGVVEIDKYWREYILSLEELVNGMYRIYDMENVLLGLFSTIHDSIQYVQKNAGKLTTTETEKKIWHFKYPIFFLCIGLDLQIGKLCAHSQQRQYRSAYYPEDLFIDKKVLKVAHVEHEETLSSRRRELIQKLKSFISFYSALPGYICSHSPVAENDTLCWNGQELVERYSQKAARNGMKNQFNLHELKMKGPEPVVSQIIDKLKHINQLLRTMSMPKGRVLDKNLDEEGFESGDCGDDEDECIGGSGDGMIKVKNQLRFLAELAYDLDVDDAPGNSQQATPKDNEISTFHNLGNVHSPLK
Binder,Kd (soluble human GPC3 [1]),Kd (soluble human GPC3 [2])
"GCH054-G1dh/none-Hi-Kn010G3/L0011-k0 (antibody, human IgG1, kappa, single-arm antibody) heavy: not shown EPKSSDKTHTCPPCPAPELLGGPSVFLFPPKPKDTLMISRTPEVTCVVVDVSHEDPEVKFNWYVDGVEVHNAKTKPREEQYNSTYRVVSVLTVLHQDWLNGKEYKCKVSNKALPAPIEKTISKAKGQPREPQVCTLPPSRDELTKNQVSLWCLVKGFYPSDIAVEWESNGQPENNYKTTPPVLDSDGSFFLYSKLTVDKSRWQQGNVFSCSVMHEALHNRYTQKSLSLSP light: DIVMTQSPLSLPVTPGEPASISCRSSQPLVHSNRNTYLHWYQQKPGQAPRLLIYKVSNRFSGVPDRFSGSGSGTDFTLKISRVEAEDVGVYYCGQGTQVPYTFGQGTKLEIKRTVAAPSVFIFPPSDEQLKSGTASVVCLLNNFYPREAKVQWKVDNALQSGNSQESVTEQDSKDSTYSLSSTLTLSKADYEKHKVYACEVTHQGLSSPVTKSFNRGEC",5.25 nM,5.25 nM
"GCH065-G1dh/none-Hi-Kn010G3/L0011-k0 (antibody, human IgG1, kappa, single-arm antibody) heavy: not shown EPKSSDKTHTCPPCPAPELLGGPSVFLFPPKPKDTLMISRTPEVTCVVVDVSHEDPEVKFNWYVDGVEVHNAKTKPREEQYNSTYRVVSVLTVLHQDWLNGKEYKCKVSNKALPAPIEKTISKAKGQPREPQVCTLPPSRDELTKNQVSLWCLVKGFYPSDIAVEWESNGQPENNYKTTPPVLDSDGSFFLYSKLTVDKSRWQQGNVFSCSVMHEALHNRYTQKSLSLSP light: DIVMTQSPLSLPVTPGEPASISCRSSQPLVHSNRNTYLHWYQQKPGQAPRLLIYKVSNRFSGVPDRFSGSGSGTDFTLKISRVEAEDVGVYYCGQGTQVPYTFGQGTKLEIKRTVAAPSVFIFPPSDEQLKSGTASVVCLLNNFYPREAKVQWKVDNALQSGNSQESVTEQDSKDSTYSLSSTLTLSKADYEKHKVYACEVTHQGLSSPVTKSFNRGEC",–,0.884 nM
"GCH094-G1dh/none-Hi-Kn010G3/L0011-k0 (antibody, human IgG1, kappa, single-arm antibody) heavy: not shown EPKSSDKTHTCPPCPAPELLGGPSVFLFPPKPKDTLMISRTPEVTCVVVDVSHEDPEVKFNWYVDGVEVHNAKTKPREEQYNSTYRVVSVLTVLHQDWLNGKEYKCKVSNKALPAPIEKTISKAKGQPREPQVCTLPPSRDELTKNQVSLWCLVKGFYPSDIAVEWESNGQPENNYKTTPPVLDSDGSFFLYSKLTVDKSRWQQGNVFSCSVMHEALHNRYTQKSLSLSP light: DIVMTQSPLSLPVTPGEPASISCRSSQPLVHSNRNTYLHWYQQKPGQAPRLLIYKVSNRFSGVPDRFSGSGSGTDFTLKISRVEAEDVGVYYCGQGTQVPYTFGQGTKLEIKRTVAAPSVFIFPPSDEQLKSGTASVVCLLNNFYPREAKVQWKVDNALQSGNSQESVTEQDSKDSTYSLSSTLTLSKADYEKHKVYACEVTHQGLSSPVTKSFNRGEC",–,4.54 nM
